# Data taken from the supplement of paper PMC10065799, “High-throughput profiling of sequence recognition by tyrosine kinases and SH2 domains using bacterial peptide display” (eLife, 2023).
# Key:
# [1] = test system: AncSZ; experiment: phosphorylation enrichment, bacterial display (enrichment ratio); higher = better substrate or ligand; peptides without Tyr show the background
# [2] = molecular target: EPHB1 (UniProt P54762); experiment: as above
# [3] = molecular target: EPHB2 (UniProt P29323); experiment: as above
# [4] = molecular target: FGFR1 (UniProt P11362); experiment: as above
# [5] = molecular target: FGFR3 (UniProt P22607); experiment: as above
# [6] = test system: Fer (mouse); experiment: as above
# [7] = molecular target: Fes (UniProt P07332); experiment: as above
# [8] = molecular target: Fyn (UniProt P06241); experiment: as above
# [9] = molecular target: Hck (UniProt P08631); experiment: as above
# [10] = molecular target: Jak2 (UniProt O60674); experiment: as above
# [11] = molecular target: MERTK (UniProt Q12866); experiment: as above
# [12] = test system: c-Abl (mouse); experiment: as above
# [13] = test system: c-Src; experiment: as above
# [14] = molecular target: Grb2 SH2 (UniProt P62993); experiment: SH2 binding enrichment of the phosphorylated peptide, bacterial display (enrichment ratio); higher = better substrate or ligand; peptides without Tyr show the background
# [15] = molecular target: SHP2-C SH2; experiment: as above
# [16] = molecular target: c-Src SH2; experiment: as above
# 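Wherever SH2 binding enrichment of the phosphorylated peptide, bacterial display is given: peptide library displayed on the E. coli surface as eCPX fusions, selected cells deep-sequenced, score is each peptide's frequency after selection divided by its frequency in the input.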
# 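Wherever phosphorylation enrichment, bacterial display is given: 11-residue human phosphosite peptides and single-mutation variants displayed on the E. coli surface, counted by deep sequencing, each peptide's frequency after selection divided by its frequency in the unselected input library; frequency after pTyr selection over input frequency; kinase dosed for 20-30% of maximal phosphorylation in three min.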
# EPHB2, sequence (P29323 whole entry, looked up): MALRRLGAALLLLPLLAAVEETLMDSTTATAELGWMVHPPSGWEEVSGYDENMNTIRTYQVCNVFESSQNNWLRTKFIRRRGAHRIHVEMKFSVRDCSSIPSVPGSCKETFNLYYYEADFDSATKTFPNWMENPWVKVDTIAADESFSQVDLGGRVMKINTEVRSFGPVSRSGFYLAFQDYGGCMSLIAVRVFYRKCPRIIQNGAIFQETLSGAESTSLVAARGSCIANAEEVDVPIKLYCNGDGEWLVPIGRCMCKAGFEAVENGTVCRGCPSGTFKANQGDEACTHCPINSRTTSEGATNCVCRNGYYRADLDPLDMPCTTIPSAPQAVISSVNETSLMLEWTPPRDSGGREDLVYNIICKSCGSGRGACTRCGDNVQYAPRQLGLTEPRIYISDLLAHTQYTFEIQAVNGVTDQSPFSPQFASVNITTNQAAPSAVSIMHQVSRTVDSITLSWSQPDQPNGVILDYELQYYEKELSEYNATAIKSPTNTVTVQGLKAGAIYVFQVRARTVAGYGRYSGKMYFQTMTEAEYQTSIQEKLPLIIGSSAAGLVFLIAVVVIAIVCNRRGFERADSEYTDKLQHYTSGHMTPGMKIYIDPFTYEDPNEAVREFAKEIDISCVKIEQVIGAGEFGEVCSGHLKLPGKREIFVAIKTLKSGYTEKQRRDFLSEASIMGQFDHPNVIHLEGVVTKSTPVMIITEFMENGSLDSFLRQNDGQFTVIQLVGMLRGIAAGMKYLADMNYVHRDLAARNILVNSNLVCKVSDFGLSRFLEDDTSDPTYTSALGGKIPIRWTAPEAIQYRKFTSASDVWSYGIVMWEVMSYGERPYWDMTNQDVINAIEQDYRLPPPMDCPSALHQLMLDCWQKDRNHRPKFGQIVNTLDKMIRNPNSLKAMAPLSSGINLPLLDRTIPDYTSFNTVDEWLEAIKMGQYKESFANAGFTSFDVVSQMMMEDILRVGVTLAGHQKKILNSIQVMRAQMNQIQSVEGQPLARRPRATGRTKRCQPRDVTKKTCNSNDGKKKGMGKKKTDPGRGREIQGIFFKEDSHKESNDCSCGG
# FGFR3, sequence (P22607 whole entry, looked up): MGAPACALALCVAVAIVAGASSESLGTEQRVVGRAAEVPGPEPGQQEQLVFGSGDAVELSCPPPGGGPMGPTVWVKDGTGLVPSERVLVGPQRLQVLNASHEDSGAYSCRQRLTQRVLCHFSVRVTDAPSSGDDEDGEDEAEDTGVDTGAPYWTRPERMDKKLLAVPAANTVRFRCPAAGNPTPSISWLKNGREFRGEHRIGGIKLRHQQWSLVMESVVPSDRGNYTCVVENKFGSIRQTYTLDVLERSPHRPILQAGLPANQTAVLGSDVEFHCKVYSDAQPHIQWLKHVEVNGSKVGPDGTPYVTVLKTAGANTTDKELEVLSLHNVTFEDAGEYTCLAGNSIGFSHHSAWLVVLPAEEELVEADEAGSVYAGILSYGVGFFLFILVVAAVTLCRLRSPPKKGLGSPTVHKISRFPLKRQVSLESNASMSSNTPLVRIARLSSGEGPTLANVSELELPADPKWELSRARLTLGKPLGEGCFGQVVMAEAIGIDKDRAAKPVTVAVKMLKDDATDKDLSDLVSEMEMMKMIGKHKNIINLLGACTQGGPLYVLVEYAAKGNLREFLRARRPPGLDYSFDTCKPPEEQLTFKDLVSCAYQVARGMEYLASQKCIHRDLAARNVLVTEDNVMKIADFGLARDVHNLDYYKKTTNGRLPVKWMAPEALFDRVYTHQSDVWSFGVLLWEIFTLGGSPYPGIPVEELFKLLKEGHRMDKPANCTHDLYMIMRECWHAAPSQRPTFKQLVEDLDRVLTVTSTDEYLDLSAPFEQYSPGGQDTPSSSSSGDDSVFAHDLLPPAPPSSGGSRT
# Hck, sequence (P08631 whole entry, looked up): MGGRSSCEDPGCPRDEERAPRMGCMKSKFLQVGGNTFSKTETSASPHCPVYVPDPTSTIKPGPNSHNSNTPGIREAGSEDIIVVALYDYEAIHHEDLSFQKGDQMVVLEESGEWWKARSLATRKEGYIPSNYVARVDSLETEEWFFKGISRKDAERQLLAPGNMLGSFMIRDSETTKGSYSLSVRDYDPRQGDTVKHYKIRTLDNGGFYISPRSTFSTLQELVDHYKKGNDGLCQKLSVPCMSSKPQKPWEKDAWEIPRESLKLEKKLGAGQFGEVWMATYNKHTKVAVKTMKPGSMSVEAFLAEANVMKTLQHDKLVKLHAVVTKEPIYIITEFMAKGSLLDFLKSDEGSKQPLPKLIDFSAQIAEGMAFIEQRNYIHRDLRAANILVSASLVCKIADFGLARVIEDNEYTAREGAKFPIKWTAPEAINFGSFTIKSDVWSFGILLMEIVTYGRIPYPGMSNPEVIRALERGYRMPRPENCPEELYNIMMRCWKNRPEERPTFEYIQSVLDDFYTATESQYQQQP
# Fes, sequence (P07332 whole entry, looked up): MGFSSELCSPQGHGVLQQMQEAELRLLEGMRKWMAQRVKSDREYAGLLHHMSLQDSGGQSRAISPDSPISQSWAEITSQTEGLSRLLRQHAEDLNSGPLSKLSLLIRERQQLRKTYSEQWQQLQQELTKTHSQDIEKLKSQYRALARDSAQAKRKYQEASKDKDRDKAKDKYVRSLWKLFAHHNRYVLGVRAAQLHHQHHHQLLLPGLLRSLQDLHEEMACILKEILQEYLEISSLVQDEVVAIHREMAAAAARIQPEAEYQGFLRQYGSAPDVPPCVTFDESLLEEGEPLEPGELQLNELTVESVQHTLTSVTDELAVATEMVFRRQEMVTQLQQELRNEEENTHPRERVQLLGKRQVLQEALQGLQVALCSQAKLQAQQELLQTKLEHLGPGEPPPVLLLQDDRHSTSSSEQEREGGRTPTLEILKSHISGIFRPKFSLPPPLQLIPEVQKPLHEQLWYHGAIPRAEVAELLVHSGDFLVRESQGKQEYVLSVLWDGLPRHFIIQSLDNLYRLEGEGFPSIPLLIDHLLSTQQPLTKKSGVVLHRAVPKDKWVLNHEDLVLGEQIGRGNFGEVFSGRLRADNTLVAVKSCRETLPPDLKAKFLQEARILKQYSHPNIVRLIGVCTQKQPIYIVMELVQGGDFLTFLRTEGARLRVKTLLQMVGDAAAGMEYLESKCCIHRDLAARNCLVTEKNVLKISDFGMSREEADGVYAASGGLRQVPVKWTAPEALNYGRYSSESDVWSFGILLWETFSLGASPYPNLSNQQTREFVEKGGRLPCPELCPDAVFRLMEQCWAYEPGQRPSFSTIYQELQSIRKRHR
# MERTK, sequence (Q12866 whole entry, looked up): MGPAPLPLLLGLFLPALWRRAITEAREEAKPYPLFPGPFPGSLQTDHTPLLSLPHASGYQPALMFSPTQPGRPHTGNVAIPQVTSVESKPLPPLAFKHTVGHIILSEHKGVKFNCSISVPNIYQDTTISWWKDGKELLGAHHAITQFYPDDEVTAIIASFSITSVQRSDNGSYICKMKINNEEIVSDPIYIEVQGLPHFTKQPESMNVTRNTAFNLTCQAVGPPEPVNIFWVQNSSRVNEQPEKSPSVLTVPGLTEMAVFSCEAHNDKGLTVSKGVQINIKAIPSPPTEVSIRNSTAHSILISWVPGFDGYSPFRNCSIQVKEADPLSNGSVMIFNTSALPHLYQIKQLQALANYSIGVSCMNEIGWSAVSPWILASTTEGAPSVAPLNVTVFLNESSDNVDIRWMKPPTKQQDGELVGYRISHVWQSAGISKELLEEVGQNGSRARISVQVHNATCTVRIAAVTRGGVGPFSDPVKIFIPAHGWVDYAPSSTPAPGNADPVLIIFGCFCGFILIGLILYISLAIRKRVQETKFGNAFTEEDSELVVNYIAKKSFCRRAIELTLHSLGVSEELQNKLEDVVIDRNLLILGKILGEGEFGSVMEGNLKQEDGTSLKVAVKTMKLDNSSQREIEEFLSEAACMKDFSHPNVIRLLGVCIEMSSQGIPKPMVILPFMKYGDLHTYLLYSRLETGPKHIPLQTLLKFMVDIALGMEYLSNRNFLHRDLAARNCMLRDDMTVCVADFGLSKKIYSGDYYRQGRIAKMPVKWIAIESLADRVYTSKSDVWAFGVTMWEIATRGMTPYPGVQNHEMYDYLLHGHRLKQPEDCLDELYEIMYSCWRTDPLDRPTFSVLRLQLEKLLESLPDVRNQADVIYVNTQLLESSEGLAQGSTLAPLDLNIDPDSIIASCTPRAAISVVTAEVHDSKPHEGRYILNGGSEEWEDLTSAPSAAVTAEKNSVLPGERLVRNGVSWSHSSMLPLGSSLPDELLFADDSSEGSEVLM
# Grb2 SH2, sequence (P62993 whole entry, looked up): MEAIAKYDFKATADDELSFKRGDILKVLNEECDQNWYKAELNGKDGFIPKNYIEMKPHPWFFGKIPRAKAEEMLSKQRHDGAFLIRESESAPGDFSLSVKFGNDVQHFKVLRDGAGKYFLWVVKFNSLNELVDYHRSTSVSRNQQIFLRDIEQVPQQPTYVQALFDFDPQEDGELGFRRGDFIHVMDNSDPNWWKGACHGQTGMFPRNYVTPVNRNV
# Fyn, sequence (P06241 whole entry, looked up): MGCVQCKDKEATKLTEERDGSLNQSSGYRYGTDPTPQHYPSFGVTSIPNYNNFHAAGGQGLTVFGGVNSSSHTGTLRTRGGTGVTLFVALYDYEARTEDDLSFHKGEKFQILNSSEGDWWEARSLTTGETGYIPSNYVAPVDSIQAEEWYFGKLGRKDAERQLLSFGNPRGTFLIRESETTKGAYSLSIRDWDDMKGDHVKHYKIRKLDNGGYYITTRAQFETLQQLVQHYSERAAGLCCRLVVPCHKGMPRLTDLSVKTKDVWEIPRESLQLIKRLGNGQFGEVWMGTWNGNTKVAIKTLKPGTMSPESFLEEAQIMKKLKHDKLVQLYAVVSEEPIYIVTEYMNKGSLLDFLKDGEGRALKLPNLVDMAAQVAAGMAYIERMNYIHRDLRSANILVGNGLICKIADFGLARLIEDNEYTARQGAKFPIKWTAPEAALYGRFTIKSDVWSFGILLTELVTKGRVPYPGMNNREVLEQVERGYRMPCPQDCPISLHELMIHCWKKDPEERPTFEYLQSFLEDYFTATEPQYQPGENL
Sequence,phosphorylation enrichment [1],phosphorylation enrichment [2],phosphorylation enrichment [3],phosphorylation enrichment [4],phosphorylation enrichment [5],phosphorylation enrichment [6],phosphorylation enrichment [7],phosphorylation enrichment [8],phosphorylation enrichment [9],phosphorylation enrichment [10],phosphorylation enrichment [11],phosphorylation enrichment [12],phosphorylation enrichment [13],SH2 binding enrichment [14],SH2 binding enrichment [15],SH2 binding enrichment [16]
KELSSYKHLTL [SLIT2_Y776_N775S],0.556,0.315,0.38,0.393,0.406,0.497,0.53,0.427,0.445,0.491,0.404,0.511,0.451,0.757,0.497,0.481
KERNQYGEVMV [MMP21_Y347],0.587,0.455,0.436,0.502,0.463,0.653,0.734,1.39,0.507,0.547,0.404,0.683,0.744,0.93,0.825,0.391
KFEDVYVRICL [B3GALNT1_Y269_G271R],1.64,0.655,0.582,0.512,0.926,0.593,1.38,0.452,0.479,1.28,0.436,1.03,0.545,0.816,0.758,0.472
KFLENYLNRLL [PLD2_Y169_YF],0.694,0.464,0.642,0.499,0.562,0.462,0.768,0.37,0.415,0.762,0.37,0.471,0.481,1.67,1.79,1.51
KIEGIYARDET [RPL35A_Y34_V33I],0.887,0.536,0.497,0.585,0.619,0.491,0.919,1.07,1.12,0.663,0.413,0.493,1.09,0.883,0.788,0.548
KIRDWYQRQRP [KRT14_Y151],0.621,0.405,0.463,0.415,0.419,0.45,0.635,0.4,0.38,0.553,0.446,0.637,0.502,0.84,0.744,0.523
KIVQDYLEKFF [MMP8_Y36_T32I_YF],1.19,0.662,0.595,0.616,0.808,0.65,1.38,0.614,0.773,1.02,0.512,0.956,0.556,1.08,1.19,0.691
KKEGPYDVVVL [PARK7_Y67],0.675,0.492,0.49,0.494,0.546,6.5,0.776,1.01,0.57,0.691,0.7,0.631,1.33,0.801,0.629,0.827
KKHIPCREHKS [CSNK1G2_Y206_Y206C],1.76,1.6,0.962,1.13,3.13,1.66,2.35,0.667,0.876,3.46,0.713,2.79,0.832,1.6,1.62,1.68
KKHIPHREHKS [CSNK1G2_Y206_Y206H],2.89,2.61,1.71,1.97,4.9,2.81,4.05,1.01,1.72,5.87,1.42,4.03,1.53,2.15,1.87,1.8
KKRSVYIKVLF [CC2D2A_Y683_L684I],0.99,0.411,0.396,0.457,0.515,0.451,0.954,0.392,0.363,0.798,0.335,0.644,0.304,1.1,0.646,0.548
KLADMYGGGKD [CDH1_Y876_E880K],0.584,0.468,0.497,0.462,0.424,0.414,0.692,0.425,0.476,0.547,0.346,0.528,0.353,0.779,0.376,0.412
KLADVYQAELR [GFAP_Y116],0.789,0.533,0.459,0.472,0.667,0.445,0.792,0.492,0.47,0.549,0.429,0.549,0.634,0.844,0.561,0.486
KLCHLYQDHMQ [WNT5A_Y86],0.654,0.54,0.53,0.44,0.514,0.667,0.881,0.442,0.554,0.549,0.45,0.597,0.575,1.08,1.17,1.4
KLKPIYFHTQG [AR_Y916_V912L],0.602,0.393,0.503,0.511,0.525,0.312,0.671,0.349,0.364,0.513,0.4,0.568,0.523,1.78,2.12,1.95
KLPDAYERFIL [G6PD_Y437_L440F],0.985,0.568,0.562,0.476,0.661,1.22,1.06,0.578,0.569,0.892,0.538,0.745,0.713,0.933,0.801,1.1
KLQQWYREPRS [GPI_Y17_H20P],0.85,0.44,0.712,0.36,0.491,0.385,0.708,0.446,0.493,0.562,0.463,0.615,0.507,0.999,0.799,0.5

Sequence,phosphorylation enrichment [1],phosphorylation enrichment [2],phosphorylation enrichment [3],phosphorylation enrichment [4],phosphorylation enrichment [5],phosphorylation enrichment [6],phosphorylation enrichment [7],phosphorylation enrichment [8],phosphorylation enrichment [9],phosphorylation enrichment [10],phosphorylation enrichment [11],phosphorylation enrichment [12],phosphorylation enrichment [13],SH2 binding enrichment [14],SH2 binding enrichment [15],SH2 binding enrichment [16]
KLSCSYSHWSA [C4BPA_Y470],1.13,0.716,0.771,0.793,0.91,0.657,1.28,0.578,0.636,0.894,0.527,1.15,0.672,0.894,0.802,0.732
KLSFSYGWALQ [ALDOB_Y302_R304W],1.52,0.844,0.764,0.676,0.936,0.591,1.8,0.503,0.509,1.72,0.559,1.19,0.585,0.921,0.67,0.558
KNCFKYYMSDD [ATRX_Y203],1.4,0.794,0.701,0.547,1.01,0.624,1.37,0.54,0.595,1.16,0.496,0.961,0.572,0.828,0.785,0.835
KNSSIYVVANI [VNN1_Y134_N131S],1.23,0.681,0.64,0.528,0.873,0.622,1.38,0.567,0.662,1.31,0.751,1.07,0.691,0.988,0.942,0.646
KPGLIYNKVNP [SPRED3_Y72_V71I],0.703,0.485,0.408,0.373,0.429,0.803,1,0.738,2.25,0.722,1.07,0.857,0.975,1.12,1.44,0.895
KPGLKYVTFGN [GALNTL5_Y404_YF],0.671,0.351,0.539,0.412,0.514,0.366,0.768,0.409,0.498,0.605,0.449,0.551,0.488,1.33,1.7,1.21
KPGVNYFFRVS,1.06,0.495,0.472,0.376,0.697,0.41,1.32,0.348,0.479,0.986,0.358,0.73,0.374,0.863,0.749,0.463
KRELRYMHSRV [ABCD1_Y281_G277R],0.472,0.282,0.534,0.295,0.447,0.272,0.578,0.312,0.381,0.525,0.305,0.486,0.313,1.43,1.65,1.49
KRFRIYHLATS [BRCA2_Y3009_YF],0.567,0.353,0.435,0.358,0.481,0.422,1.57,0.434,0.454,0.439,0.38,0.391,0.482,1.05,1.18,1.24
KRGIDYILWHM [FRMD1_Y225_R228W],1.04,0.765,0.824,1.33,0.984,0.591,1.15,0.5,0.536,1.06,0.548,0.788,0.414,1.56,1.5,1.08
KRLAVYIDEEA [EPM2A_Y304_P301L],1.11,0.665,0.615,0.514,0.837,0.524,1.14,0.601,0.496,1.23,0.484,0.781,0.578,0.85,0.486,0.507
KRPAVYIDEEA [EPM2A_Y304],1.07,0.547,0.514,0.598,0.704,0.548,1.07,0.567,0.485,0.901,0.518,0.746,0.542,0.949,0.709,0.711
KRYRIYHLAIS [BRCA2_Y3009_T3013I],0.535,0.37,0.358,0.599,0.464,0.406,0.68,0.343,0.446,0.604,0.62,0.449,0.459,1.13,1.03,1.51
KSAAIYNPVIY [RHO_Y301],0.758,0.805,0.744,1.41,1.25,15.4,0.72,7.54,8.17,0.573,3.42,0.727,6.12,1.1,0.581,1.02
KSEMSYIDGEK [SORBS1_Y485],0.899,0.72,0.999,0.659,0.592,0.493,0.848,0.502,0.469,0.736,0.479,0.586,0.449,0.697,0.68,0.467
KTDKKYLMIEE [BAG3_Y451],0.867,0.436,0.635,0.463,0.746,0.647,1.11,0.477,0.516,0.96,0.424,0.807,0.532,0.762,0.573,0.473
